According to PMC5437297, “PTEN regulates glioblastoma oncogenesis through chromatin-associated complexes of DAXX and histone H3.3” (Nature Communications, 2017):

Target: T1, human recombinant Flag-DAXX protein (human, UniProt Q9UER7 1-740)
T1 construct: DAXX (death-domain associated protein), human, recombinant; Commercial protein; no catalogue number is printed in the main text; source: bought: OriGene Technologies (recombinant protein)
Assay: pull-down; 50 ng His-PTEN immobilised on 30 ul nickel beads, incubated with 200 ng Flag-DAXX for 2 h at 4 °C; bound proteins eluted and immunoblotted (the legend says IP anti-PTEN, IB anti-Flag)
Conditions: both partners purified

T1 sequence (Q9UER7 whole entry): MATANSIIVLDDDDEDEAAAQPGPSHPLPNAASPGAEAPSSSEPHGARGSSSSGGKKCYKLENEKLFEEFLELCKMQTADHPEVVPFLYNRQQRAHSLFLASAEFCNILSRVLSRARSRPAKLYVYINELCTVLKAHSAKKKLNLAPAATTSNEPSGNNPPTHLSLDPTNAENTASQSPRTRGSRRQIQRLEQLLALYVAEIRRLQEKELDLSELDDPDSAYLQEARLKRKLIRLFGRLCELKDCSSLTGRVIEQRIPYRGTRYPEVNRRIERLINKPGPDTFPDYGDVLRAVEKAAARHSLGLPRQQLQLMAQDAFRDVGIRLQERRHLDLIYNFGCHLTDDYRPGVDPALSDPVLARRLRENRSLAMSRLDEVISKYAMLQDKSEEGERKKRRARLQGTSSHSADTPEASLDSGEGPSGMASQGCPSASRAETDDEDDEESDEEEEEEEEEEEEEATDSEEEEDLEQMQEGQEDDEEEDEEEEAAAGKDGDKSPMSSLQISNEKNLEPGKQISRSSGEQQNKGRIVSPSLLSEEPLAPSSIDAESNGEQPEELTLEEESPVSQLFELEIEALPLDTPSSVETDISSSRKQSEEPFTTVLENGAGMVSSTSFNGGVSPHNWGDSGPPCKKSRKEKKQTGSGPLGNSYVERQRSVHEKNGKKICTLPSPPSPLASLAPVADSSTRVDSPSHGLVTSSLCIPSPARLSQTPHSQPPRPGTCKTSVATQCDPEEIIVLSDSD

B1: human recombinant His-PTEN (natural protein)
chain: not shown
notes: PTEN (phosphatase and tensin homolog), human, recombinant; Commercial protein; no catalogue number is printed in the main text (reagents are in the Supplementary Methods); source: bought: ENZO Life Science (recombinant protein)
B1: binds.
